Assay results taken from patent US20060140858A1, “Drug pre-targeting by means of bi-specific antibodies and hapten constructs comprising a carrier peptide and the active agent(s)” (Immunomedics, Inc., priority 2002, published 2006).

Test: Biodistribution of In-111 IMP 224 in BALB/c mice
Type: in vivo
Protocol: Kits were reconstituted with 400 μCi In-111 in 0.5 mL water.

COc1cccc2c1C(=O)c1c(O)c3c(c(O)c1C2=O)C[C@@](O)(C(CO)=NNc1ccc(C(=O)N[C@@H](CCCCNC(=O)CN(CCN(CCN(CC(=O)O)CC(=O)O)CC(=O)O)CC(=O)O)C(=O)N[C@@H](Cc2ccc(O)cc2)C(=O)N[C@@H](CCCCNC(=O)CN(CCN(CCN(CC(=O)O)CC(=O)O)CC(=O)O)CC(=O)O)C(N)=O)cc1)C[C@@H]3O[C@H]1C[C@H](N)[C@H](O)[C@H](C)O1 [IMP 224, Dox = N—NH—C6H4—CO-Lys(DTPA)-Tyr-Lys(DTPA)-NH2]
tissue uptake at 0.5 h (BALB/c, mouse, 20 uCi, total radioactivity, Blood, 30 min): 1.44 ± 0.28 %ID/g
tissue uptake at 1 h (BALB/c, mouse, 20 uCi, total radioactivity, Blood, 1 hr): 0.54 ± 0.12 %ID/g
tissue uptake at 2 h (BALB/c, mouse, 20 uCi, total radioactivity, Blood, 2 hr): 0.12 ± 0.01 %ID/g
tissue uptake at 4 h (BALB/c, mouse, 20 uCi, total radioactivity, Blood, 4 hr): 0.1 ± 0.01 %ID/g
tissue uptake at 24 h (BALB/c, mouse, 20 uCi, total radioactivity, Blood, 24 hr): 0.02 %ID/g
tissue uptake at 0.5 h (BALB/c, mouse, 20 uCi, total radioactivity, Kidney, 30 min): 8.45 ± 1.79 %ID/g
tissue uptake at 1 h (BALB/c, mouse, 20 uCi, total radioactivity, Kidney, 1 hr): 5.36 ± 1.01 %ID/g
tissue uptake at 2 h (BALB/c, mouse, 20 uCi, total radioactivity, Kidney, 2 hr): 3.75 ± 0.52 %ID/g
tissue uptake at 4 h (BALB/c, mouse, 20 uCi, total radioactivity, Kidney, 4 hr): 4.03 ± 0.45 %ID/g
tissue uptake at 24 h (BALB/c, mouse, 20 uCi, total radioactivity, Kidney, 24 hr): 2.12 ± 0.17 %ID/g
tissue uptake at 0.5 h (BALB/c, mouse, 20 uCi, total radioactivity, Liver, 30 min): 0.57 ± 0.04 %ID/g
tissue uptake at 1 h (BALB/c, mouse, 20 uCi, total radioactivity, Liver, 1 hr): 0.31 ± 0.03 %ID/g
tissue uptake at 2 h (BALB/c, mouse, 20 uCi, total radioactivity, Liver, 2 hr): 0.17 ± 0.03 %ID/g
tissue uptake at 4 h (BALB/c, mouse, 20 uCi, total radioactivity, Liver, 4 hr): 0.17 ± 0.01 %ID/g
tissue uptake at 24 h (BALB/c, mouse, 20 uCi, total radioactivity, Liver, 24 hr): 0.13 ± 0.02 %ID/g
tissue uptake at 0.5 h (BALB/c, mouse, 20 uCi, total radioactivity, Lungs, 30 min): 1.61 ± 0.34 %ID/g
tissue uptake at 1 h (BALB/c, mouse, 20 uCi, total radioactivity, Lungs, 1 hr): 0.99 ± 0.26 %ID/g
tissue uptake at 2 h (BALB/c, mouse, 20 uCi, total radioactivity, Lungs, 2 hr): 0.25 ± 0.02 %ID/g
tissue uptake at 4 h (BALB/c, mouse, 20 uCi, total radioactivity, Lungs, 4 hr): 0.17 ± 0.02 %ID/g
tissue uptake at 24 h (BALB/c, mouse, 20 uCi, total radioactivity, Lungs, 24 hr): 0.09 ± 0.02 %ID/g
tissue uptake at 0.5 h (BALB/c, mouse, 20 uCi, total radioactivity, Muscle, 30 min): 0.51 ± 0.19 %ID/g
tissue uptake at 1 h (BALB/c, mouse, 20 uCi, total radioactivity, Muscle, 1 hr): 0.21 ± 0.08 %ID/g
tissue uptake at 2 h (BALB/c, mouse, 20 uCi, total radioactivity, Muscle, 2 hr): 0.03 ± 0.02 %ID/g
tissue uptake at 4 h (BALB/c, mouse, 20 uCi, total radioactivity, Muscle, 4 hr): 0.02 %ID/g
tissue uptake at 24 h (BALB/c, mouse, 20 uCi, total radioactivity, Muscle, 24 hr): 0.01 %ID/g
tissue uptake at 0.5 h (BALB/c, mouse, 20 uCi, total radioactivity, Spleen, 30 min): 0.57 ± 0.18 %ID/g
tissue uptake at 1 h (BALB/c, mouse, 20 uCi, total radioactivity, Spleen, 1 hr): 0.27 ± 0.06 %ID/g
tissue uptake at 2 h (BALB/c, mouse, 20 uCi, total radioactivity, Spleen, 2 hr): 0.12 ± 0.01 %ID/g
tissue uptake at 4 h (BALB/c, mouse, 20 uCi, total radioactivity, Spleen, 4 hr): 0.11 ± 0.01 %ID/g
tissue uptake at 24 h (BALB/c, mouse, 20 uCi, total radioactivity, Spleen, 24 hr): 0.07 %ID/g
tissue uptake at 0.5 h (BALB/c, mouse, 20 uCi, total radioactivity, Stomach, 30 min): 0.61 ± 0.07 %ID/g
tissue uptake at 1 h (BALB/c, mouse, 20 uCi, total radioactivity, Stomach, 1 hr): 0.15 ± 0.07 %ID/g
tissue uptake at 2 h (BALB/c, mouse, 20 uCi, total radioactivity, Stomach, 2 hr): 0.05 ± 0.01 %ID/g
tissue uptake at 4 h (BALB/c, mouse, 20 uCi, total radioactivity, Stomach, 4 hr): 0.06 ± 0.02 %ID/g
tissue uptake at 24 h (BALB/c, mouse, 20 uCi, total radioactivity, Stomach, 24 hr): 0.04 ± 0.02 %ID/g
tissue uptake at 0.5 h (BALB/c, mouse, 20 uCi, total radioactivity, Tail, 30 min): 3.66 ± 0.43 %ID/g
tissue uptake at 1 h (BALB/c, mouse, 20 uCi, total radioactivity, Tail, 1 hr): 1.9 ± 0.09 %ID/g
tissue uptake at 2 h (BALB/c, mouse, 20 uCi, total radioactivity, Tail, 2 hr): 0.46 ± 0.09 %ID/g
tissue uptake at 4 h (BALB/c, mouse, 20 uCi, total radioactivity, Tail, 4 hr): 0.24 ± 0.03 %ID/g
tissue uptake at 24 h (BALB/c, mouse, 20 uCi, total radioactivity, Tail, 24 hr): 0.58 ± 0.22 %ID/g
excreta dose per gram or mL at 2 h (BALB/c, mouse, 20 uCi, total radioactivity, Urine, 2 hr): 19.1 %ID/g
excreta dose per gram or mL at 4 h (BALB/c, mouse, 20 uCi, total radioactivity, Urine, 4 hr): 1.72 ± 0.67 %ID/g
excreta dose per gram or mL at 24 h (BALB/c, mouse, 20 uCi, total radioactivity, Urine, 24 hr): 0.42 ± 0.18 %ID/g
tissue uptake at 0.5 h (BALB/c, mouse, large intestine, 20 uCi, total radioactivity, Large Int., 30 min): 0.59 ± 0.43 %ID/g
tissue uptake at 1 h (BALB/c, mouse, large intestine, 20 uCi, total radioactivity, Large Int., 1 hr): 0.18 ± 0.04 %ID/g
tissue uptake at 2 h (BALB/c, mouse, large intestine, 20 uCi, total radioactivity, Large Int., 2 hr): 0.38 ± 0.15 %ID/g
tissue uptake at 4 h (BALB/c, mouse, large intestine, 20 uCi, total radioactivity, Large Int., 4 hr): 0.3 ± 0.06 %ID/g
tissue uptake at 24 h (BALB/c, mouse, large intestine, 20 uCi, total radioactivity, Large Int., 24 hr): 0.08 ± 0.03 %ID/g
tissue uptake at 0.5 h (BALB/c, mouse, small intestine, 20 uCi, total radioactivity, Small Int., 30 min): 0.72 ± 0.08 %ID/g
tissue uptake at 1 h (BALB/c, mouse, small intestine, 20 uCi, total radioactivity, Small Int., 1 hr): 0.37 ± 0.19 %ID/g
tissue uptake at 2 h (BALB/c, mouse, small intestine, 20 uCi, total radioactivity, Small Int., 2 hr): 0.09 ± 0.01 %ID/g
tissue uptake at 4 h (BALB/c, mouse, small intestine, 20 uCi, total radioactivity, Small Int., 4 hr): 0.09 ± 0.03 %ID/g
tissue uptake at 24 h (BALB/c, mouse, small intestine, 20 uCi, total radioactivity, Small Int., 24 hr): 0.05 ± 0.01 %ID/g
% ID/g (Urine, 30 min): 1553 % ID/g
% ID/g (Urine, 1 hr): 1400 ± 421 % ID/g
